Key:
[1] = target: HER2 on SKBR3 cells (UniProt P04626); experiment: flow cytometry on SKBR3 cells
[2] = target: CD-30 on Karpas 299 and L540 cells (UniProt P28908); experiment: FACS-based cell binding on L540 cells, Alexa-488 goat anti-human IgG detection, MFI normalised to the averaged maximum (% binding)
[3] = target: CD-30 on Karpas 299 and L540 cells (UniProt P28908); experiment: flow cytometry on L540 cells, one site-total binding fit
[4] = target: CD-30 on Karpas 299 and L540 cells (UniProt P28908); experiment: flow cytometry on Karpas 299 cells, one site-total binding fit
[5] = target: CD-30 on Karpas 299 and L540 cells (UniProt P28908); experiment: FACS-based cell binding on Karpas 299 cells, Alexa-488 goat anti-human IgG detection, MFI normalised to the averaged maximum (% binding)
[6] = target: HER2 on SKBR3 cells (UniProt P04626); experiment: flow cytometry on SKBR3 cells, one site specific binding fit; column head prints 'Cell Binding IC50, nM' (heads of c3 and c4 seem swapped)

Chain of UniProt P28908 (P28908 19-595 limits assumed): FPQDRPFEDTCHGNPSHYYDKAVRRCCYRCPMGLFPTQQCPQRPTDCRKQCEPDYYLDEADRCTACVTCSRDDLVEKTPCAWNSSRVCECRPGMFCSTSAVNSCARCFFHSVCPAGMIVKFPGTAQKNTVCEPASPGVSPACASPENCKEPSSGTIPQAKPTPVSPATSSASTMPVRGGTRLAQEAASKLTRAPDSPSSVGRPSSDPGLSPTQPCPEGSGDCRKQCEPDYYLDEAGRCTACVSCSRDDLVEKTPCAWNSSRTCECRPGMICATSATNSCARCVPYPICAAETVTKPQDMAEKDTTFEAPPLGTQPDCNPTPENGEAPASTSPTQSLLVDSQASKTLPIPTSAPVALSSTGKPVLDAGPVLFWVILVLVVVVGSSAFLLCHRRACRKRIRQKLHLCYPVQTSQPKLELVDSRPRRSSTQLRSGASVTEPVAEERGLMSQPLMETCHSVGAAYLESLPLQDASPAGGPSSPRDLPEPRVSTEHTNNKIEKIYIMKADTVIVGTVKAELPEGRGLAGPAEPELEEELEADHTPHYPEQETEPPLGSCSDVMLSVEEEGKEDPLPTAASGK

Row | Substance | Kd [1] [nM] | EC50 (read off the curve) [2] [nM] | Kd [3] [nM] | Kd [4] [nM] | EC50 (read off the curve) [5] [nM] | Kd [6] [nM]
1 | Trastuzumab scFv-Fc (-1) pN3F conjugated to DBCO-MMAF (Fc fusion) | 6.8 | – | – | – | – | –
2 | Adcetris HC K121 unconjugated (antibody) | – | 0.8 | – | – | – | –
3 | Aglycosylated Brentuximab IgG LC-N152 conjugated to DBCO-MMAF 2 (antibody) | – | 0.6 | 1 | 0.5 | 0.4 | –
4 | Adcetris HC F404 unconjugated (antibody) | – | 1 | – | – | – | –
5 | Aglycosylated Brentuximab IgG HC-F404 conjugated to DBCO-MMAF 2 (antibody) | – | 0.7 | 0.81 | 0.46 | 0.3 | –
6 | Aglycosylated Brentuximab IgG HC-K121 conjugated to DBCO-MMAF 2 (antibody) | – | – | 1.3 | 0.52 | 0.4 | –
7 | Trastuzumab scFv (VL_VH) with pN3F at position (-1), conjugated to DBCO-MMAF | – | – | – | – | – | 14

Reference: patent publication US20170362341A1
